Tests used:
[1] = from Kohn et al., cited from earlier work
[2] = system: healthy male normal glycemic Wistar rats; assay: Blood glucose-lowering effect of insulin analogues in rats; format: in vivo, rat; details: dose 9 nmol/kg s.c., n=8, blood glucose up to eight hours after injection
Experimental: In order to test the insulin derivatives of the invention for their biopharmacological and physicochemical properties, a solution of the compounds was prepared as follows: the insulin derivative of the invention was dissolved with a target concentration of 240±5 μM in 1 mM hydrochloric acid with 80 μg/mL zinc (as zinc chloride). For this purpose, initially an amount of the freeze-dried material which is about 30% higher than required on the basis of the molecular weight and the desired concentration was weighed out. The concentration present was then determined by analytical HPLC and the solution was subsequently made up to the volume necessary to achieve the target concentration with 5 mM hydrochloric acid with 80 μg/mL zinc. If necessary, the pH was readjusted to 3.5±0.1. After the final analysis by HPLC to verify the target concentration of 240±5 μM, the finished solution was transferred by means of a syringe with a 0.2 μm filter attachment into a sterile vial which was closed with a septum and a crimped cap. […] Blood samples are taken from the animals immediately before the injection of the insulin analogue and at regular intervals up to eight hours after the injection, and the blood glucose content therein is determined.

| Substance | calculated pl ([1]; calculated) | experimentally determined pl ([1]; experimentally determined) | isoelectric point (pl) [1] | hypoglycemic effect [2] |
| --- | --- | --- | --- | --- |
| Arg (A0), Gly (A21), Arg (B31), Arg (B32) human insulin [Compound 18] | 7.58 | 7.3 |  |  |
| human insulin |  |  | 5.6 | hypoglycemic effect |

— patent US8633156B2, “Insulin derivatives having an extremely delayed time-action profile” (Sanofi-Aventis Deutschland GmbH, priority 2008, dated 2014)
